Measured values published in the DeepSol protein solubility set.

assay: soluble on expression in E. coli; label from the status in PepcDB or PDB records

Question: For “MRWVRFFHEVGLEDVPLVGGKNASLGEMIRELSPLGVRVPEGFATTSEAYWHFLEHNGLKEAIARELGELDPEDPKALQRVSRRLRNLILKGEYPQDLREEILEAYRRLSEEAVEEEIPVAVRSSATAEDLLTASFAGQQESFLYVQGEADLLLHVKRAMASLFTARAISYRAHMGFDHLKVALSVGVQRMVRADDAASGVIFTLDPDTGHRGFVYLTAIYGLGENIVQGRVIPDGYYVHKETFREGFRAVVYRRLGAKELTLAFDPREGRLKNRPTPLYLRNRFALRDEEVLLLADWAMKIEDHYSKKRGSPTPMDIEWAKDGPTGELFVLQARPETVHSQKTPVLRVFRLLKRGEVLAEGLAVGEAIAMGRARVLKDPKEMDRFQEGEVLVTETTNPDWEPIMKKAAAIVTERGGRTSHAAIVARELGVPAVVGAVGATRSVPEGEEVTVSCAEGERGVVYRGRLPFEVEEIRPETLPRTRTRILVNVGTPEEALRTSLLPTDGVGLLRMEFVFASHVRVHPLALTRFETLPKEVRRQVEEVTEAYPDKRAYFVETLSQGIGLIAAAFYPRPVLLRFSDFKTNEYARLLGGHLFEPKEENPMLGWRGASRYYHPDYKEGFLLEVAAVRRVREEMGLKNLMVMVPFCRTPEEGEKVLEVMAEGGLRREEGGLEVHVMAEIPSNVLEAEAFAELFDGFSIGSNDLTQLALGLDRDSERVAHLFDERRETVKRLAAMLIEKAHAKGKKVGICGQAPSDYPEFAAFLVERGIDSLSLNPDALLRTVREVAEVERRLGIG”, which “soluble on expression in E. coli” value is on record?
Answer: soluble

Question: With “MRYMMTYDWMETVRNTNQWMGATANSMASYPLFSMVPNPVFNWMSAWGEVTERTFQRMVVKPDWGIRTFTCEDGKDHLVEINTVVERDFGDLIHINVTGRETQPRKVLLVAPMSGHYATLLRSTVKSLLVNCEVYVTDWHNARDIPVSAGKFDVEDYTLYLVDFMRELGPDTHVIAVCQPAPLTLAATAYLAELDPKAQPSTLTLIGGPVDPDATPTEVTDFGRRVTMGQLEQSMIQRVGFKYKGVGRMVYPGLLQLASFMSMNADRHSKAFTDQIQRVMRDEASDHDAHNRFYDEYLAVMDMTAEFYLSTVERVFKKREIARNAFIVDGHKVDISKITDVAVMTVEGANDDISAPGQCIAALDLCTGLADSKKANHLEPGAGHYGIFAGRSWRDNIRPLVIDFMNTNSRKGKSLRPANKNSAA” as the sequence, how does the “soluble on expression in E. coli” value read?
Answer: not soluble

Question: Which “soluble on expression in E. coli” value does the source give for “MSAEFERLLAQFERFQSKIKKVDDQLANVERMQSEIAELEATASNADRSITIVAGPGGAIKDIQLTDKALSQQPQALSAALMSTIQEAVAEAARKQAAIVDDHMGGQLNVTDQVLETQAQLFGTSPQELRERMEQERPIRQTPLRPEEEYHEDYSHQDFLGSDQEQQSPPPPPAPSGGSAGDEFLQNLFNNDDHR” here?
Answer: not soluble

Question: Which “soluble on expression in E. coli” value does the source give for “MSAEFNQLVAQFEQFQAKLHRVDQQFADLGQMQRELTELEVVATSADREVTVVAGPSGTIKDIRLTDQAMHRPPQALATALMATLRQAVAESARRQAGIVENALGDEMGLTEQVLETQAQLFGVTPQELRAMTEQAPGQPPAAPPPAPPAAGPGPQTPLAPPARPTPPRRPAPAEEADDFSQRGFLRDDDQQPRRPQADPGQKRDDRFLNLYDDEGR” here?
Answer: not soluble

Question: Which “soluble on expression in E. coli” value does the source give for “MSAESGVAALLRLMAWLSPAFPVGGFSYSGGLEKAVEDGRVCDAAGLGGWVETLLRHGSLWNDAVFLAHAWRSSQDTTALSETANLGRALAGSAERYRETVLLGDAFIAAASAWPHAVLELLPKEAPYPVAIGAVAAGHGVPLRETLAAFLHAGVSQIVSAGIRLGVAGQKDGVAILAASEAVIEEIAARAALSTLDDLGSATVIADTAAMRHETQGTRLFRSLEHHHHHH” here?
Answer: not soluble

Question: With “MSAKQVSKDEEKEALNLFLSTQTIIKEALRKLGYPGDMYELMKEPQRMLTVRIPVKMDNGSVKVFTGYRSQHNDAVGPTKGGVRFHPEVNEEKVKALSIWMTLKCGIANLPYGGGKGGIICDPRTMSFGELERLSRGYVRAISQIVGPTKDIPAPDVYTNSQIMAWMMDEYSRLREFDSPGFITGKPLVLGGSQGRETATAQGVTICIEEAVKKKGIKLQNARIIIQGFGNAGSFLAKFMHDAGAKVIGISDANGGLYNPDGLDIPYLLDKRDSFGMVTNLFTDVITNEELLEKDCDILVPAAISNQITAKNAHNIQASIVVERANGPTTIDATKILNERGVLLVPDILASAGGVTVSYFEWVQNNQGYYWSEEEVAEKLRSVMVSSFETIYQTAATHKVDMRLAAYMTGIRKSAEASRFRGWV” as the sequence, how does the “soluble on expression in E. coli” value read?
Answer: soluble

Question: For “MSAMENESNKDTNTETKSVPEEMEASKYVGQGFQPPAEKDAIEFAKKHRKEFEKVGEQFFKDNFGLKVKATNVVGKDDGVEVYVHCEDHGIVFNASLPLYKDAIHQKGSMRSNDNGDDMSMMVGTVLSGFEYRAQKEKYDNLYKFFKENEKKYQYTGFTKEAINKTQNVGYQNEYFYITYLSRNLKEYRKYYEPLIHKNDKEFKEGMQQARKELDYTANTDAVSTLFSTKKNFTKDNTVDDVIELSNKLKEKPNMPQKSQVTIQLGKSSINTKKPFYDDINPIEGLEHHHHHH”, which “soluble on expression in E. coli” value is on record?
Answer: soluble

Question: For “MSAPLRVLVTGAAGQIGYSIVIRIADGTVFGKEQPVELVLLDVPQCSNILEGVVFELQDCALPTLFSVVAVTDEKSAFTGIDYAFLVGAMPRREGMERKDLLAANVKIFKSQGKALAEYAKPTTKVIVVGNPANTNAFIAAKYAAGKIPAKNFSAMTRLDHNRALAQLALKTGTTIGNVKNVIIWGNHSGTQFPDVTHATVNKNGTETDAYAAVGDNAFLQGPFIATVQKRGGVIIEKRKLSSAMSAAKAACDHIHDWHFGTKAGQFVSMAVPSDGSYGIPQGLIFSFPVTIEGGEWKIVQGLSFDDFAKGKIAATTKELEEERDDALKACDDANI”, which “soluble on expression in E. coli” value is on record?
Answer: not soluble

Question: Which “soluble on expression in E. coli” value does the source give for “MSAQKPGLHPRNRHQHRYDLAALCQTTPELTSFLIRTPAGEQSVDFANPQAVKALNKALLAHFYAVTHWDIPPGFLCPPVPGRADYIHHLADLLGETTGSIPAQATILDVGVGANCIYPLIGVHEYGWRFTGSEVSDAAMSSAQAIIQANTGLSRAIRLRRQKDPAAIFTGIIHKNEFYDATLCNPPFHDSAAAARAGSERKRRNLGQNKDDALNFGGQQQELWCEGGEVAFIKKMIAESQSFRRQVLWFTTLVSRGENLPPLYRALTEAGAVKVVKKEMAQGQKQSRFIAWTFMDDDQRRRFITRKR” here?
Answer: not soluble

Question: Which “soluble on expression in E. coli” value does the source give for “MSASFSAPRLRPRQLSAGDLVEESLLDPANDYLRIVRARQPGMDLRQWIAAAGAGLRDSLLRHGGILFRGFAVDGAEGFSQAVQSFSPNMLDYLERAAARQEVAHRVFTSTEFSPDGWIPPHHEMSYSHNWPSYIHFYCQTPPATQGRTPLADERRVSARIPEAIRQRFLRHGVCYVRNYGPEIDLTWQEGFQTDSRAEVEAYCRQTGTQWTWLDDQRLNTRQVRQAMVRHPLSGETLWFNHAHMFHVSNMPPALARALLDEVGEQGLPRNAYYGDGSPIEAEVLDTIRAAYREETRAFAWERGDVLMLDNFISVHGREPYTGERKVLVAMTDLHVHQP” here?
Answer: not soluble

Question: Which “soluble on expression in E. coli” value does the source give for “MSASVKESLQLQLLEMEMLFSMFPNQGEVKLEDVNALTNIKRYLEGTREALPPKIEFVITLQIEEPKVKIDLQVTMPHSYPYVALQLFGRSSELDRHQQLLLNKGLTSYIGTFDPGELCVCAAIQWLQDNSASYFLNRKLVYEPSTQAKPVKNTFLRMWIYSHHIYQQDLRKKILDVGKRLDVTGFCMTGKPGIICVEGFKEHCEEFWHTIRYPNWKHISCKHAESVETEGNGEDLRLFHSFEELLLEAHGDYGLRNDYHMNLGQFLEFLKKHKSEHVFQILFGIESKSSDSLEHHHHHH” here?
Answer: soluble

Question: Which “soluble on expression in E. coli” value does the source give for “MSCHTSCIDHTSALIHCADEVFEKPLPHLFEAAVFLMGFTLWGKLEFNQRDGFLDCPHGDRVCGSGMMSKVDILQLTGHFFTNFNGRDYIENIQNLFDNQLASYHIRNQFLIGIQRLGHRKLLIAF” here?
Answer: not soluble

Question: Which “soluble on expression in E. coli” value does the source give for “MSDAPTVVAYLGPAGTFTEEALYKFADAGVFGDGEIEQLPAKSPQEAVDAVRHGTAQFAVVAIENFVDGPVTPTFDALDQGSNVQIIAEEELDIAFSIMVRPGTSLADVKTLATHPVGYQQVKNWMATTIPDAMYLSASSNGAGAQMVAEGTADAAAAPSRAAELFGLERLVDDVADVRGARTRFVAVQAQAA” here?
Answer: not soluble

Question: With “MSDDHHDDEHFHTGDSGAAATFPKQCSALRKNEHVMIKGRPCKIVEMSTSKTGKHGHAKVHMVAIDIFTSKKLEDICPSTHNMDVPVVKRREYLLMAIDDGYCSLMDPESCEQKDDLKLPDTELGQQIRDAYEKDEGSVLVQVVSAIGEEAILGWKVSTKE” as the sequence, how does the “soluble on expression in E. coli” value read?
Answer: not soluble

Question: For “MSDEAIHDIFVIGGGINGCGIARDAVGRGYSVALAEMNDFASGTSSAATKLIHGGLRYLEHYEFRLVREALMEREVLWAMAPHIIWPMRFVLPFQKGGVRPAWLVRLGLFLYDHLGGRKLLPATRSLDLRRDPAGKPLKPIFARAFEYSDGWVDDARLVVLNARDAADRGAVILNRTQVVSARREGAFWRVETKNAAGESKTYRARMLVNAAGPWVDKVLAATFGKNNVHNVRLVQGSHIIVRKKFADPRAYFFQNPDGRIIFAIPYEQDFTLIGTTDRDYTADPRAVKISDEEISYLCNAASEYFAEPVKPADIVWTYSGVRPLFDDGASKAQEATRDYVLKTEGAEGEAPLLNIFGGKLTTYRRLAEHALEKIGDALGEKGTPWTAGSHLPGGNFGAEAYAEEVKALRSRYPFLDRRHAERLVRCYGTDAVAIIGAAADTTALGRHFGGTLYEAEVRWLMAREWALTAEDILWRRTKQGLFLTPEEVLGLTDYIDDIAGGRLKAILEHHHHHH”, which “soluble on expression in E. coli” value is on record?
Answer: soluble

Question: With “MSDGFSVDPAELEGFAGVAEGHAGTAGQIKGLVDRADVGDKSWGVVGLFVKSTYTGMLGDLKELFGDLEEGLRGVGERFRATAEDYRGPEEAIQRAFDGIDTGSGGR” as the sequence, how does the “soluble on expression in E. coli” value read?
Answer: not soluble

Question: With “MSDHEEESHGASPTSPASSGASSPLAPISPRSEGNAPESPSGDVQDIYKDESFEAPASPARDSSAPASPSAASPAGSRSPSPSPVKTKSKVMIDSDEDSDAEESANKRALIDSDASDAEGKKRRVMLDSDDSDHEGTSKKEPTTKNLFGDDSDDDDEDRPKKTNDLDEFVEGRDEEESQETSKPAYDSDDDDGPVDRHGRHFEWDFDKMLAEKKAERKKKTRRGGKDGGIDIINDDDGTVSRLVERMKHAAKSDRNANIERKPAFQKIKMLPEVKAIMLRAGIVEVLIENGFMSALSEWLAPLPDKCLPALDIRITVLKLLHNPRFWKLDRSTLKQSGLGKAVMMLYKHPNETKENKGIANKLIGEWARPIYHLDTDYSTVSRQEREERDYSRMPEKRKKKINSRDEEEPNDDDQPKRPRIRDADEMGPTKSDDLKPGDKGYIPRARVPKPSTKDYVIRPEWRVTGAFKGEKKSTGNNRYDQTFRDFQERTKKSKANRIVKVSLEGRNMGI” as the sequence, how does the “soluble on expression in E. coli” value read?
Answer: soluble

Question: With “MSDISEKFWDASIEELKKGYVFDEEKEEYICLACGETFIKGVIYQDNQILYEAEKFVQLHIQNEHTSMFDYLLNMDKKFTGLTDLQKKMVQFFHMGLNDKEIVKEMDGGSTSTIRNHRFTLREKMKQAKVFLALMELSEEKSKVQTKFVPIHRTATMVDDRYNITEEENDEVLKAHFTEGLDGPLSKFPKKQKRKLIILRHLVKKFDSNKKYTEKEVNTVIENVYPDFVTLRRYLIEYGFLDRTADGSQYWVKL” as the sequence, how does the “soluble on expression in E. coli” value read?
Answer: not soluble
